Assay results reported in IntAct's records for PubMed 25042851.

B1: Ubiquitin-binding protein CUE5 (Saccharomyces cerevisiae), Q08412 (parent)
chain: MEEKEGIKDSSLLEKSNVPESINEDISKTTDVDLNSDGKKDNDTSAKDGTPKVEEKVNKSSGIDEDEVVTPAEDAKEEEEEHPPLPARRKSEEEPSKENPILQELKDAFPNLEEKYIKAVIIASQGVLSPAFNALLFLSDPESGKDIELPTQPVRKNPEAPARRRQTQLEQDELLARQLDEQFNSSHSRRRNRDRATRSMHEQRRRRHNPNEREQHHEDSEEEDSWSQFVEKDLPELTDRAGRSLQDTANKVSNWISDAYRRNFASGNEQNDNQHGHQDQQEWEPEIVDLSQGGKNSRPQQPERRRFNSFGVQVGDDSLESHGITLHNEDGFEDDEDVPPQLPTRTKSGESTGKVVAETTYIDTPDTETKKKWQPLPPEPLDTTPTKVNAVSRNKKNPDEDEFLINSDDEM
B2: Ubiquitin-binding protein CUE5 (Saccharomyces cerevisiae), Q08412 (parent)
chain: B1 chain
partner: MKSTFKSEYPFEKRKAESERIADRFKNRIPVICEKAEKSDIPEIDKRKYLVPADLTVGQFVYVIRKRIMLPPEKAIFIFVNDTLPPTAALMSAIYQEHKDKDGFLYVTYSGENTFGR

Variants of: B1
Conditions: with hd_human HTT

**Q.** How did the “effect of a mutation on the interaction” value turn out when L135A;L136A was run?
**A.** The value was “disrupting interaction strength”.

Variants of: B2
Conditions: with atg8_yeast ATG8, P38182

**Q.** For L376A, which “effect of a mutation on the interaction” value is on record?
**A.** The value was “decreasing interaction strength”.

**Q.** W373A;Q374A;P375A;L376A was tested. Which “effect of a mutation on the interaction” value did it give?
**A.** Its value is “disrupting interaction strength”.

**Q.** Which “effect of a mutation on the interaction” value does the source give for W373A here?
**A.** The value was “decreasing interaction strength”.
